Assay [1] has as its target plant virus-based immunosorbent nanoparticle (VIN): assembled turnip vein clearing virus (TVCV) virion of coat protein Fc-affinity ligand fusion (CP-FcAL) (turnip vein clearing virus | S. aureus) (UniProt Q88922). Put plainly: pull-down; magnetic separation: VIN covalently coupled to superparamagnetic particles (VIN-MP), hIgG in PBS; eluted with 0.2 M glycine buffer pH 2.5.

The target is the same in assay [2]. The experiment in a line: co-sedimentation; affinity sedimentation: purified VIN mixed in free suspension with a pre-purified target; VIN-target complex pelleted (12,000 x g, 10 min for hIgG; 20,000 x g, 20 min for the Fc-fusions); eluted with 0.1 M glycine-HCl pH 2.5; SDS-PAGE and Western blot.

For “human immunoglobulin G (hIgG) (antibody)”, in assay [1], the binding capacity per mass of magnetic particle (µg hIgG/mg MP) was > 1000; the hIgG binding/elution load per mass of VIN (mg hIgG/mg VIN) worked out at 0.3; the hIgG elution recovery per mass of VIN, VIN-MP relative to uncoupled VIN was 35 to 55%; the recovery of the feed hIgG stood at 42%. The substance further came in with a recovery of the feed hIgG in assay [2] of 95%.

The values are drawn from article PMC9092175.
